Measured values published in EP1516629B1.
Residue numbers refer to the chain shown, from its start.

B1: SerH55Ala variant IgG1 (antibody, V domains shown)
VH: EVQLVESGGGLVQPGGSLRLSCAASGYSFTGHWMNWVRQAPGKGLEWVGMIHPSDAETRYNQKFKDRFTISVDKSKNTLYLQMNSLRAEDTAVYYCARGIYFYGTTYFDYWGQGTLVTVSS
VL: DIQMTQSPSSLSASVGDRVTITCRASKTISKYLAWYQQKPGKAPKLLIYSGSTLQSGVPSRFSGSGSGTDFTLTISSLQPEDFATYYCQQHNEYPLTFGQGTKVEIK
B2: LysH73Arg variant IgG1 (antibody, V domains shown)
VH: B1 VH with A56S, K74R
VL: B1 VL
B3: AspH65Ala variant IgG1 (antibody, V domains shown)
VH: B1 VH with A56S, D66A
VL: B1 VL
B4: LysH64Ala variant IgG1 (antibody, V domains shown)
VH: B1 VH with A56S, K65A
VL: B1 VL
B5: LysH62Ala variant IgG1 (antibody, V domains shown)
VH: B1 VH with A56S, K63A
VL: B1 VL
B6: GlnH61Ala variant IgG1 (antibody, V domains shown)
VH: B1 VH with A56S, Q62A
VL: B1 VL
B7: ArgH58Ala variant IgG1 (antibody, V domains shown)
VH: B1 VH with A56S, R59A
VL: B1 VL

These binders were tested against T1, human CD11a (human) (UniProt P20701) (assay: FACScan, Jurkat cells).
T1 sequence (looked up): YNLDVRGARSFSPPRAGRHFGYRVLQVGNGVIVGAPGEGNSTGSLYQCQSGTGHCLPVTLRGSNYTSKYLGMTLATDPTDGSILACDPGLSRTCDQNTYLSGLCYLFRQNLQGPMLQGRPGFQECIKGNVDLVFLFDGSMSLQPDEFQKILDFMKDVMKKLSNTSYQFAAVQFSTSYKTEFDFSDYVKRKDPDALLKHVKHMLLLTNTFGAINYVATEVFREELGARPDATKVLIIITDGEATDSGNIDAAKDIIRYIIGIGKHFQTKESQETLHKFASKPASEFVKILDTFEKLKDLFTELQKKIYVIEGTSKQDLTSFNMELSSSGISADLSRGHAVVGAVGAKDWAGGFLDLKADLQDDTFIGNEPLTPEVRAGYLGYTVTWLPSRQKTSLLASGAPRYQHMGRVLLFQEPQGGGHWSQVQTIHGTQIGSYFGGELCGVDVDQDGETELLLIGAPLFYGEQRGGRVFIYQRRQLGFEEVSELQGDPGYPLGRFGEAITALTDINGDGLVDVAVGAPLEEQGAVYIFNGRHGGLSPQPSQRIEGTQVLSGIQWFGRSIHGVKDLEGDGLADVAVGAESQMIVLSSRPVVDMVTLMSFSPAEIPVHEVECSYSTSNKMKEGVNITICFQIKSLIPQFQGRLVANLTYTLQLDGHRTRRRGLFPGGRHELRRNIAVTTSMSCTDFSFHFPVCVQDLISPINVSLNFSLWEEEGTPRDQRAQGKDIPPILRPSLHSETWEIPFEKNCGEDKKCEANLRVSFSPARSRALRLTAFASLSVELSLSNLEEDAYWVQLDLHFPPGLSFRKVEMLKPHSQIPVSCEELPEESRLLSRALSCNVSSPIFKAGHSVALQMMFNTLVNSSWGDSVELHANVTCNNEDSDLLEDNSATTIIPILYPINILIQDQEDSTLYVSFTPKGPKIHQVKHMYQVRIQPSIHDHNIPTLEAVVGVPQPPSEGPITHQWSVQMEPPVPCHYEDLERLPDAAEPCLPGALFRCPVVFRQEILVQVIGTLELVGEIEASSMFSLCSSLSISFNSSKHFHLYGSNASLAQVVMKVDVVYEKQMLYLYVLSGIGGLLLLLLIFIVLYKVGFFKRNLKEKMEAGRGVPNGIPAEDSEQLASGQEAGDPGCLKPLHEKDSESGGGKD
A Var.EC50/HuIgG1 EC50 of 1.3 was found for B1 in this work. A Var.EC50/HuIgG1 EC50 of 4.6 was found for B2 in this work. A Var.EC50/HuIgG1 EC50 of 0.8 was found for B3 in this work. A Var.EC50/HuIgG1 EC50 of 2.5 was found for B4 in this work. A Var.EC50/HuIgG1 EC50 of 1.8 was found for B5 in this work. A Var.EC50/HuIgG1 EC50 of 4.1 was found for B6 in this work. A Var.EC50/HuIgG1 EC50 of 1.1 was found for B7 in this work.

The binders below were run against T2, rhesus CD11a (rhesus) (UniProt H9Z8N3) (assay: binding to rhesus peripheral blood lymphocytes).
T2 sequence: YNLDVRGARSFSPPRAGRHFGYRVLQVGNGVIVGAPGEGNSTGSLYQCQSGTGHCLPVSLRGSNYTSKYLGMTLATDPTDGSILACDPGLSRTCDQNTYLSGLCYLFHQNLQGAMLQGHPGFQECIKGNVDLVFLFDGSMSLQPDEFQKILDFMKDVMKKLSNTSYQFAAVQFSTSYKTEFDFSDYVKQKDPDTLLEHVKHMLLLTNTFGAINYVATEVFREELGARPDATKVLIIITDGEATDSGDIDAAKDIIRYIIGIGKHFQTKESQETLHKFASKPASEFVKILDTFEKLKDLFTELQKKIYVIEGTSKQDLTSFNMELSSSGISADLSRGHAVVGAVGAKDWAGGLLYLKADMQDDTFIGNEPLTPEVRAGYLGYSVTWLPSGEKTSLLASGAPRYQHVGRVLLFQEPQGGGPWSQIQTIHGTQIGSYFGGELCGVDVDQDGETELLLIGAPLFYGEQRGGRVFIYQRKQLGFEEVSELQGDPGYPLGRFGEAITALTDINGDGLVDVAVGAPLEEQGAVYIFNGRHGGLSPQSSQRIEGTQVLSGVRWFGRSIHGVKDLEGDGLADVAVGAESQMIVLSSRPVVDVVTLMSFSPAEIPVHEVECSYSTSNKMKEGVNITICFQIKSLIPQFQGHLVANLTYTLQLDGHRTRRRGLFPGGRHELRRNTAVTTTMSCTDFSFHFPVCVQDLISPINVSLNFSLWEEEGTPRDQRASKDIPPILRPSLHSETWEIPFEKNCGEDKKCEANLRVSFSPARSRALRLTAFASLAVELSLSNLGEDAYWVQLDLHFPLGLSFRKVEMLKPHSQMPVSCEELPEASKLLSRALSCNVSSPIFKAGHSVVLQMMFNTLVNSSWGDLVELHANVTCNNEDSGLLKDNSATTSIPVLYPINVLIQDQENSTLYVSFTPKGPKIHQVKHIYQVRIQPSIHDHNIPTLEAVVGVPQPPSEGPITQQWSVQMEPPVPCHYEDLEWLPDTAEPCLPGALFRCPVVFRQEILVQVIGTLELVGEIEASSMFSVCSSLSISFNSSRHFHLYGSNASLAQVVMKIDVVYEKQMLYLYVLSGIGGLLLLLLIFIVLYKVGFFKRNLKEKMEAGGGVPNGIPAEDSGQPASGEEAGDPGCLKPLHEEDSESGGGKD
A Var.EC50/HuIgG1 EC50 of 1.3 was found for B1 in this work. A Var.EC50/HuIgG1 EC50 of 5.5 was found for B2 in this work. A Var.EC50/HuIgG1 EC50 of 1.1 was found for B3 in this work. A Var.EC50/HuIgG1 EC50 of 1.2 was found for B4 in this work. A Var.EC50/HuIgG1 EC50 of 4.9 was found for B5 in this work. A Var.EC50/HuIgG1 EC50 of 5.3 was found for B6 in this work. A Var.EC50/HuIgG1 EC50 of 3.3 was found for B7 in this work.
